Measured values taken from patent EP4650366A1 (Beijing Tuo Jie Biopharmaceutical Co. Ltd., dated 2025).
Where two headings read alike, the source gives them in different places.

T1: human GARP-TGFβ2 complex expressed by transfected HEK293E cells (human, UniProt P61812 21-414; Q14392 20-662)
T1 construct: whole, on cells; also called TGFβ2-GARP complex; TGFβ2 + GARP
T1 sequence (looked up) 1: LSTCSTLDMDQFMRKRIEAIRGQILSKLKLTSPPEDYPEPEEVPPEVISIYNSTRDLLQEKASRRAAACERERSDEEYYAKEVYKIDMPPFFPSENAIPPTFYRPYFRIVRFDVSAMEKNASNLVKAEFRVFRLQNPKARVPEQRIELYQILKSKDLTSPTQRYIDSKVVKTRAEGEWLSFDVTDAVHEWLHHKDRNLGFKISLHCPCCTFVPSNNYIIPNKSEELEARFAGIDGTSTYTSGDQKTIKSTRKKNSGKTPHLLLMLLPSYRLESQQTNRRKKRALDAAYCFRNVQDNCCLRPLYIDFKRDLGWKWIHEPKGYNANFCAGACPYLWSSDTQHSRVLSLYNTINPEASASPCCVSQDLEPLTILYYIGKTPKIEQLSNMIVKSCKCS
T1 sequence (looked up) 2: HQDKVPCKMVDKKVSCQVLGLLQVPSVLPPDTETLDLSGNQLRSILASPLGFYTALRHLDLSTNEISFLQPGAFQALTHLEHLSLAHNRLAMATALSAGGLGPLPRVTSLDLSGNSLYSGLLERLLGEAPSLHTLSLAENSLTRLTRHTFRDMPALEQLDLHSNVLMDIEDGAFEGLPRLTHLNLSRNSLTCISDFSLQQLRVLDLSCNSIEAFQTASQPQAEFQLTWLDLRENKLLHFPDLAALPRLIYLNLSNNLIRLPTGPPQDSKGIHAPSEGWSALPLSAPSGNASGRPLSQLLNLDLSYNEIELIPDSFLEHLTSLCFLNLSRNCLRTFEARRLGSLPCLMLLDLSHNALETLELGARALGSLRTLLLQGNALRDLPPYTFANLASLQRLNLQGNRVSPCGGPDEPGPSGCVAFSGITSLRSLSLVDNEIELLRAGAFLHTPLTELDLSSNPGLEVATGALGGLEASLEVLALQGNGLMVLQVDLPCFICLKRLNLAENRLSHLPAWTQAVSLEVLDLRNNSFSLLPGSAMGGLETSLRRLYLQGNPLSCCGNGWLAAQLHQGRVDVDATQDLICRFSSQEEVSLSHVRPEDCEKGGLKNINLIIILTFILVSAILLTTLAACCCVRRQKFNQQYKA

T2: human TGFβ2 expressed by transfected HEK293E cells (human, UniProt P61812 21-414)
T2 construct: whole, on cells
T2 sequence (looked up): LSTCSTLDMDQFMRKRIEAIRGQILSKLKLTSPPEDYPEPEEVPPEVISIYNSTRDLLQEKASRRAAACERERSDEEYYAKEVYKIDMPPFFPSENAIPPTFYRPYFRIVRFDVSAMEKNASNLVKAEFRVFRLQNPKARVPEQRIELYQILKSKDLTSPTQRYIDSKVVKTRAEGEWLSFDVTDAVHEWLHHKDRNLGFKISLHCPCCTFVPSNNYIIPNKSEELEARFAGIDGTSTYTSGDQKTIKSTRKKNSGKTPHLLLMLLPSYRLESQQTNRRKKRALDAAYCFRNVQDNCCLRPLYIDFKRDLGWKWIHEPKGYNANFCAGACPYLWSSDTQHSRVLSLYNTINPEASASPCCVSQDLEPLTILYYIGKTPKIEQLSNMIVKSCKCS

B1: SL2-2 (antibody, human IgG4 S228P, kappa, V domains shown)
VH: not shown
VL: DIQMTQSPSSLSASVGDRVTITCRASQFISDYLNWYQQKPGKAPKLLIYTASYLDSGVPSRFSGSGSGTDFTLTISSLQPEDFATYYCQQSYSTPLTFGGGTKLEIKR
notes: Human IgG4-S228P/kappa, H27 heavy chain
B2: SL2-9 (antibody, human IgG4 S228P, kappa, V domains shown)
VH: not shown
VL: DIQMTQSPSSLSASVGDRVTITCRASQFISPYLNWYQQKPGKAPKLLIYAASELESGVPSRFSGSGSGTDFTLTISSLQPEDFATYYCQQSYSTPLTFGGGTKLEIKR
notes: as for B1
B3: SL2-12 (antibody, human IgG4 S228P, kappa, V domains shown)
VH: not shown
VL: DIQMTQSPSSLSASVGDRVTITCRASQYISDYLNWYQQKPGKAPKLLIYSASYLDSGVPSRFSGSGSGTDFTLTISSLQPEDFATYYCQQSYSTPLTFGGGTKLEIKR
notes: as for B1
B4: SL2-19 (antibody, human IgG4 S228P, kappa, V domains shown)
VH: not shown
VL: DIQMTQSPSSLSASVGDRVTITCRASQAISPYLNWYQQKPGKAPKLLIYAASELESGVPSRFSGSGSGTDFTLTISSLQPEDFATYYCQQSYSTPLTFGGGTKLEIKR
notes: as for B1
B5: SL2-22 (antibody, human IgG4 S228P, kappa, V domains shown)
VH: not shown
VL: DIQMTQSPSSLSASVGDRVTITCRASQSISDYLNWYQQKPGKAPKLLIYTASYLDSGVPSRFSGSGSGTDFTLTISSLQPEDFATYYCQQSYSTPLTFGGGTKLEIKR
notes: Human IgG4-S228P/kappa, H27 heavy chain; also called TGFβ1 monoclonal antibody SL2-22; anti-human TGFβ1 antibody SL2-22
B6: Ab6 (antibody, V domains shown)
VH: QVQLVESGGGVVQPGRSLRLSCAASGFAFSSYGMHWVRQAPGKGLEWVAVISYDGNNKYYADSVKGRFTISRDNSKNTLYLQMNSLRAEDTAVYYCARDLLVRFLEWSHKYGMDVWGQGTTVTVSS
VL: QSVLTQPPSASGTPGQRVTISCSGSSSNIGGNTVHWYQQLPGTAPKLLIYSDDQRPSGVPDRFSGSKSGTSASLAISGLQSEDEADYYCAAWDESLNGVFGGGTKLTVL

How the values were obtained:
[1] = target: T3, Human GARP-TGFβ1 complex (human, UniProt Q14392 20-627; P01137 30-390); experiment: SPR, method of Example 4; reference H27; antigen not given, taken as the human GARP-TGFβ1 complex as in Table 11
T3 construct: Soluble recombinant complex, co-expressed in ExpiCHO cells and purified; also called human GARP/TGFβ1 protein
T3 sequence (P01137 30-390 limits assumed, one chain of several): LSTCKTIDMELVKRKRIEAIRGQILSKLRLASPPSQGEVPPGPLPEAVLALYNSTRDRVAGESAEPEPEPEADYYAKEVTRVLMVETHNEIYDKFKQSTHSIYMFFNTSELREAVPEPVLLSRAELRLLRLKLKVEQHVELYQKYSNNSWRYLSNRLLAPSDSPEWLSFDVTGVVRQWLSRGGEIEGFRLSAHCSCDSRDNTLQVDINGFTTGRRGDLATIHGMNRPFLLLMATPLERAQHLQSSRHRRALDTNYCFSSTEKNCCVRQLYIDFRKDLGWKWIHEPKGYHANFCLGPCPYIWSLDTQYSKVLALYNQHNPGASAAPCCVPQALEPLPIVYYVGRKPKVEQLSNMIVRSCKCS

[2] = target: T3, Human GARP-TGFβ1 complex; experiment: SPR (Biacore T200), method of Example 4
[3] = target: T4, mouse TGFβ1 expressed by transfected cells (mouse, UniProt P04202 30-390); experiment: flow cytometry on transfected HEK293E cells, 10 nM antibody
T4 construct: whole, on cells; also called mTGFβ1; murine TGFβ1
T4 sequence (P04202 30-390): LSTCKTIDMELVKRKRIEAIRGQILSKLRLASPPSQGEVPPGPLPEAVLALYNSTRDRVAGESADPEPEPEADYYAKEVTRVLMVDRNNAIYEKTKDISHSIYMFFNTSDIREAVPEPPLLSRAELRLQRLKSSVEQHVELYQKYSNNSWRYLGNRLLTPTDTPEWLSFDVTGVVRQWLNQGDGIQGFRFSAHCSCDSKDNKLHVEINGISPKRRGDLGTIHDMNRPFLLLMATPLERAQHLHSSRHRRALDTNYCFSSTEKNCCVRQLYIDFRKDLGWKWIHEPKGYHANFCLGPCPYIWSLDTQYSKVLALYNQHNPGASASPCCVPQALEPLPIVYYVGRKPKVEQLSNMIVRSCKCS

[4] = target: T5, mouse GARP-TGFβ1 complex expressed by transfected cells (mouse, UniProt P04202 30-390; G3XA59 18-663); experiment: as above
T5 construct: whole, on cells; also called mTGFβ1-mGARP complex; mTGFβ1 + mGARP
T5 sequence (P04202 30-390, chain 1 of 2): as the sequence (P04202 30-390) above
T5 sequence (G3XA59 18-663, chain 2 of 2): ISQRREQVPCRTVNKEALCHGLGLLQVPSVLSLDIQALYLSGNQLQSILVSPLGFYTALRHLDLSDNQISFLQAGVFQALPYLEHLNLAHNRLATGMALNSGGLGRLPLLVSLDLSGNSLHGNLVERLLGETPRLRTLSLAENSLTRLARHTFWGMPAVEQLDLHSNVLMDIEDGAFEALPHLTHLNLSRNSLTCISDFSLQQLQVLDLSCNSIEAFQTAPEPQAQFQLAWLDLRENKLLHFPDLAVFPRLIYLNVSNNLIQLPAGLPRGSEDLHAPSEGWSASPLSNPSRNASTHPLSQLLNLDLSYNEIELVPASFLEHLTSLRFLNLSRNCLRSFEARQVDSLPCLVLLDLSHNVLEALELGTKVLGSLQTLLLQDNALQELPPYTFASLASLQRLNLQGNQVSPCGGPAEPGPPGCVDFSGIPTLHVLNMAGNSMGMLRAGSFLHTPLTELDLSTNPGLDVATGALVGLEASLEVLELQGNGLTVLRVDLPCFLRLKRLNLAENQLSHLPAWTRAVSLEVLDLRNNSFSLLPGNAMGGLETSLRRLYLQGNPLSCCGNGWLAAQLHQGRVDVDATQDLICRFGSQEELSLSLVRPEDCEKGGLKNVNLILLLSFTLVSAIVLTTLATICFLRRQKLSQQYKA

[5] = target: T6, human TGFβ1 expressed by transfected cells (human, UniProt P01137 30-390); experiment: as above
T6 construct: whole, on cells; also called human pro-TGFβ1
T6 sequence (P01137 30-390): as the sequence (P01137 30-390 limits assumed, one chain of several) above

[6] = target: T7, human GARP-TGFβ1 complex expressed by transfected cells (human, UniProt P01137 30-390; Q14392 20-662); experiment: as above
T7 construct: whole, on cells; also called TGFβ1-GARP complex; TGFβ1 + GARP
T7 sequence (P01137 30-390, one chain of several): as the sequence (P01137 30-390 limits assumed, one chain of several) above

[7] = target: T1, human GARP-TGFβ2 complex expressed by …; experiment: flow cytometry on transfected HEK293E cells, FITC anti-human Fc
[8] = target: T2, human TGFβ2 expressed by transfected …; experiment: as above
[9] = target: T3, Human GARP-TGFβ1 complex; experiment: SPR (Biacore T200), method of Example 4; remark: listed apart in the source
[10] = target: T8, Mouse GARP-TGFβ1 complex (mouse, UniProt G3XA59 18-628; P04202 30-390); experiment: SPR (Biacore T200), method of Example 4
T8 construct: Soluble recombinant complex, co-expressed in ExpiCHO cells and purified; also called Murine GARP-TGFβ1 complex
T8 sequence (G3XA59 other isoform, or with tags, fused parts or gaps limits assumed, chain 1 of 2): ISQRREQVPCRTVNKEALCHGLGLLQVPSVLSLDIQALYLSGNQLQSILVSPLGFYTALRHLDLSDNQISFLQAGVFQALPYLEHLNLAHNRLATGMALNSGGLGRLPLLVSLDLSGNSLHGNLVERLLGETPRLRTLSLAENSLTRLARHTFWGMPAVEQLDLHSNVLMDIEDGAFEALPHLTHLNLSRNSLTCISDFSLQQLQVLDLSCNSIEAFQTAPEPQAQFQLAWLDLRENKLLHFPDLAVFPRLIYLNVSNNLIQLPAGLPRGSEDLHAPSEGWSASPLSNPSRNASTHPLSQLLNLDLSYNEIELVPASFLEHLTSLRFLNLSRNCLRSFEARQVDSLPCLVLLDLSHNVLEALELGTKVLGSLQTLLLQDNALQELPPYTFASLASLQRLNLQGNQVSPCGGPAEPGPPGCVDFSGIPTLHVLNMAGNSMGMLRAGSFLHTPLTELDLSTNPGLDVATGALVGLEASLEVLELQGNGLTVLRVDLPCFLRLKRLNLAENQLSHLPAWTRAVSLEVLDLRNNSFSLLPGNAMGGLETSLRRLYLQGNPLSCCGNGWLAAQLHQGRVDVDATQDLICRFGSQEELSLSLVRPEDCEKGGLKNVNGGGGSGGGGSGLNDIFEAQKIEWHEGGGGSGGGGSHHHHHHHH
T8 sequence (P04202 30-390 limits assumed, chain 2 of 2): as the sequence (P04202 30-390) above

Binder | fold affinity over H27 [1] | Kd [2] | koff [2] | kon [2] | binding result [3] | binding result [4] | binding result [5] | binding result [6] | binding result [7] | binding result [8] | Kd [9] | koff [9] | kon [9] | Kd [10] | koff [10] | kon [10]
B1 | 5 fold | 0.135 nM | 5.24e-05 s⁻¹ | 387000 M⁻¹ s⁻¹ | – | – | – | – | – | – | – | – | – | – | – | –
B2 | 5 fold | 0.475 nM | 8.54e-05 s⁻¹ | 180000 M⁻¹ s⁻¹ | – | – | – | – | – | – | – | – | – | – | – | –
B3 | 5 fold | 0.266 nM | 8.51e-05 s⁻¹ | 320000 M⁻¹ s⁻¹ | – | – | – | – | – | – | – | – | – | – | – | –
B4 | 5 fold | 0.362 nM | 6.95e-05 s⁻¹ | 192000 M⁻¹ s⁻¹ | – | – | – | – | – | – | – | – | – | – | – | –
B5 | 5 fold | 0.161 nM | 6.08e-05 s⁻¹ | 379000 M⁻¹ s⁻¹ | binds | binds | binds | binds | no binding (tested: 10 nM) | no binding (tested: 10 nM) | 0.254 nM | 9.5e-05 s⁻¹ | 375000 M⁻¹ s⁻¹ | 0.228 nM | 8.86e-05 s⁻¹ | 389000 M⁻¹ s⁻¹
B6 | – | – | – | – | – | – | – | – | – | – | 0.332 nM | 0.000138 s⁻¹ | 417000 M⁻¹ s⁻¹ | 0.226 nM | 0.000106 s⁻¹ | 469000 M⁻¹ s⁻¹
